Measured values reported in article PMC11665613.

Target: MPP8 (M-phase phosphoprotein 8) (UniProt Q99549)
Experiment: cross-linking; photo-crosslinking under UV-B irradiation of recombinant reader (3 or 10 uM CBX1, 5 uM BPTF, 3 uM MPP8) with sulfonium peptide (100 uM or various concentrations), 3 to 20 min; conjugates quantified by HR-MS

Chain of MPP8 (M-phase phosphoprotein 8) (Q99549 whole entry): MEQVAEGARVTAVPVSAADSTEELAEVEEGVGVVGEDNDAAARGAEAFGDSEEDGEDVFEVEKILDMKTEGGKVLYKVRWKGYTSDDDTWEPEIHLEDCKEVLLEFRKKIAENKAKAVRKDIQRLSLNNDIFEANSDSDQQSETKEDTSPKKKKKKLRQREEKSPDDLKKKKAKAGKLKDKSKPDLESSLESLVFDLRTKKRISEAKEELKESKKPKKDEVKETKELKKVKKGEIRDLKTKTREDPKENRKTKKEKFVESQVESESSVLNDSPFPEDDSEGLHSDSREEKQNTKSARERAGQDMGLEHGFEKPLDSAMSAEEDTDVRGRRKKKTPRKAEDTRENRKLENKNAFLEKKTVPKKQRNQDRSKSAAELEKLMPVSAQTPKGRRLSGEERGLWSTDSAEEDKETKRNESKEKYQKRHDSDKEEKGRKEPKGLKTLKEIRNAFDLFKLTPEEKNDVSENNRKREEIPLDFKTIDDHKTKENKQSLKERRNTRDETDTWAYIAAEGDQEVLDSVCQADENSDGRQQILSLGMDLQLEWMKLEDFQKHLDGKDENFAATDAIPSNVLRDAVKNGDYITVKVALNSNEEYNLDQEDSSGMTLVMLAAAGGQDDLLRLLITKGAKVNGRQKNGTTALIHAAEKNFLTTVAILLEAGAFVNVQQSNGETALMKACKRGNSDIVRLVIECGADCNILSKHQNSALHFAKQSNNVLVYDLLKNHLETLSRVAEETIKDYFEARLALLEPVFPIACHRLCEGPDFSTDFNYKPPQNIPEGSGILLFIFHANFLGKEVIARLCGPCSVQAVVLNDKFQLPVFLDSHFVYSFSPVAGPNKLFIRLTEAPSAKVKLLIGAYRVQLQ

fold increase of the peptidyl conjugate yield against H3K9NleS+me2: > 3 fold
Substance: H3K9NleCTMS peptide (histone H3 peptide, cysteine at position 9 alkylated to cyclic tetramethylene sulfonium)
